We go through two substances from patent US20260062487A1.

In experiment [1] the target is HLA-A*01:01 with … (RBM4) from cells (human). Kind of experiment: IP-MS, K562-A*01:01 lysate.
Experiment [2] has as its target HLA-A*01:01 with … (ERGIC3) from cells (human). Description: IP-MS, K562-A*01:01 lysate.
Experiment [3] deals with off-target HLA-A*01:01_… (PTS) on cells (human). Description: IP-MS, K562-A*01:01 lysate.
The target in experiment [4] is HLA-A*01:01 with … (UBR2) from cells (human). Description: IP-MS, K562-A*01:01 lysate.
The target in experiment [5] is HLA-A*01:01 with … (DSG4) from cells (human). Kind of experiment: IP-MS, NCI-H1703 lysate, Rep1.
Experiment [6] deals with off-target HLA-A*01:01_… (KDM7A) on cells (human). Kind of experiment: IP-MS, NCI-H1703 lysate, Rep1.
Experiment [7] concerns the target HLA-A*01:01 with … (RBM4) from cells (human). Kind of experiment: IP-MS, NCI-H1703 lysate, Rep1.
Experiment [8] concerns the target HLA-PEPTIDE target A*01:01_… (G2) on cells (human). Description: IP-MS, NCI-H1703 lysate, Rep1.
In experiment [9] the target is off-target HLA-A*01:01_… (ICE1) on cells (human). Kind of experiment: IP-MS, NCI-H1703 lysate, Rep1.
Experiment [10] concerns the target HLA-A*01:01 with … (ERGIC3) from cells (human). Kind of experiment: IP-MS, NCI-H1703 lysate, Rep1.
Experiment [11] has as its target off-target HLA-A*01:01_… (PTS) on cells (human). Description: IP-MS, NCI-H1703 lysate, Rep1.
Experiment [12] has as its target HLA-A*01:01 with … (DSG3) from cells (human). Description: IP-MS, NCI-H1703 lysate, Rep1.
Experiment [13] concerns the target HLA-A*01:01 with … (ROBO1) on cells (human). Kind of experiment: IP-MS, NCI-H1703 lysate, Rep1.
For experiment [14], the target named is HLA-A*01:01 with … (UBR2) from cells (human). Kind of experiment: IP-MS, NCI-H1703 lysate, Rep1.
For experiment [15], the target named is HLA-A*01:01 with … (DSG4) from cells (human). Description: IP-MS, NCI-H1703 lysate, Rep2.
The target in experiment [16] is off-target HLA-A*01:01_… (KDM7A) on cells (human). Kind of experiment: IP-MS, NCI-H1703 lysate, Rep2.
Experiment [17] has as its target HLA-A*01:01 with … (RBM4) from cells (human). Description: IP-MS, NCI-H1703 lysate, Rep2.
For experiment [18], the target named is HLA-PEPTIDE target A*01:01_… (G2) on cells (human). Kind of experiment: IP-MS, NCI-H1703 lysate, Rep2.
In experiment [19] the target is off-target HLA-A*01:01_… (ICE1) on cells (human). Description: IP-MS, NCI-H1703 lysate, Rep2.
For experiment [20], the target named is HLA-A*01:01 with … (ERGIC3) from cells (human). Description: IP-MS, NCI-H1703 lysate, Rep2.
Experiment [21] concerns the target off-target HLA-A*01:01_… (PTS) on cells (human). Kind of experiment: IP-MS, NCI-H1703 lysate, Rep2.
Experiment [22] addresses HLA-A*01:01 with … (DSG3) from cells (human). Description: IP-MS, NCI-H1703 lysate, Rep2.
Experiment [23] has as its target HLA-A*01:01 with … (ROBO1) on cells (human). Description: IP-MS, NCI-H1703 lysate, Rep2.
Experiment [24] has as its target HLA-A*01:01 with … (UBR2) from cells (human). Description: IP-MS, NCI-H1703 lysate, Rep2.
Experiment [25] concerns the target HLA-A*01:01 with … (DSG4) from cells (human). Description: IP-MS, NCI-H1703 lysate, Rep1 (peptide also 0 with W6/32).
The target of experiment [26] is HLA-A*01:01 with … (DSG3) from cells (human). Described as above.
Experiment [27] concerns the target HLA-A*01:01 with … (DSG4) from cells (human). Description: IP-MS, NCI-H1703 lysate, Rep2 (peptide also 0 with W6/32).
Experiment [28] addresses HLA-A*01:01 with … (DSG3) from cells (human). The experiment is described as above.

For W6/32 antibody, the copies per cell of the peptide recovered by immunoprecipitation (copies per cell) in [1] turned out to be 1000; in experiment [2], 96; in [3], 91; in experiment [4], 6; in experiment [5] it was 0; in experiment [6], 2. The copies per cell of the peptide recovered by immunoprecipitation (copies per cell) came to 16700 in experiment [7]; 3790 in [8]; 2660 in experiment [9]; 3360 in experiment [10]; 2930 in experiment [11]; 0 in experiment [12]. Moreover, the copies per cell of the peptide recovered by immunoprecipitation (copies per cell) in experiment [13] came to 554; in [14], 891; in experiment [15], 0; in [16], 2; in experiment [17], 16700; in experiment [18], 4040. In addition, the copies per cell of the peptide recovered by immunoprecipitation (copies per cell) turned out to be 2740 in experiment [19]; 3350 in [20]; 2980 in experiment [21]; 0 in experiment [22]; 517 in experiment [23]; 876 in experiment [24].

On to control IgG antibodies (antibody), for which the copies per cell of the peptide recovered by immunoprecipitation (copies per cell) was found to be 0 in experiment [25]; 0 in experiment [26]; 113 in experiment [7]; 35 in experiment [9]; 25 in [10]; 32 in experiment [11]. In addition, the copies per cell of the peptide recovered by immunoprecipitation (copies per cell) in [14] stood at 6; in experiment [27] it was 0; in experiment [28], 0; in experiment [17], 79; in experiment [19], 21; in experiment [20] it was 15. For the same substance, the copies per cell of the peptide recovered by immunoprecipitation (copies per cell) in experiment [21] worked out at 25; in [24] it was 4.
